What was measured:
[1] = biological target: HIV-1 gp41 epitope peptide with linker, conjugated to 17-base DNA (peptide-linker-DNA) and hybridized to the modular oligonucleotide probe (HIV-1); test: fluorescent modular DNA probe with two gp41 peptide copies, titrated with antibody; two-state fit
[2] = biological target: HIV-1 gp41 epitope peptide with linker, conjugated to 17-base DNA (peptide-linker-DNA) and hybridized to the modular oligonucleotide probe (HIV-1); test: electrochemical modular probe (methylene blue, square wave voltammetry) on a gold electrode, antibody titration in 80% whole blood [panel c (lower]

antibody 2F5 specific for gp41 (Polymun Scientific)
Kd [1]: 0.004 µM | Kd [2]: 0.033 µM

— patent publication US9828628
